58 variants from the Human Domainome abundance scans (Beltran et al. 2025) can be followed below.

The labels stand for the following.
B1: Serine/threonine-protein kinase LATS1, residues 98 to 141; numbered along this chain, O95835 (parent)
chain: TSEVNPQMLQDLQAAGFDEDMVIQALQKTNNRSIEAAIEFISKM

± gives the uncertainty stated by the source.

The data set covers variants of B1. As to the kind of experiment: abundance fitness (aPCA) (normalised: wild type 0, dead -1); higher = more abundant; growth selection in yeast, the domain comes from the species named. The settings on record: Homo sapiens.
TSEVNPQMLQDLQAAGFDEDMVIQALMKTNNRSIEAAIEFISKM: the abundance fitness was -0.123 ± 0.044.

TSEVNPQMLQDLQAAGFDEDMVIQALWKTNNRSIEAAIEFISKM: the abundance fitness was -0.57 ± 0.042. The value for TSEVNPQMLQDLQAAGFDEDMVIQALVKTNNRSIEAAIEFISKM was -0.043 ± 0.039.

As to TSEVNPQMLQDLQAAGFDEDMVIQALTKTNNRSIEAAIEFISKM, the abundance fitness is -0.007 ± 0.044.

For the variant TSEVNPQMLQDLQAAGFDEDMVIQALDKTNNRSIEAAIEFISKM, the abundance fitness is -0.151 ± 0.065.

Take TSEVNPQMLQDLQAAGFDEDMVIQALPKTNNRSIEAAIEFISKM: the abundance fitness was -0.597 ± 0.055. In the case of TSEVNPQMLQDLQAAGFDEDMVQQALQKTNNRSIEAAIEFISKM, the abundance fitness was -0.158 ± 0.049. On to TSEVNPQMLQDLQAAGFDEDMVSQALQKTNNRSIEAAIEFISKM, for which the abundance fitness was -0.183 ± 0.038. Take TSEVNPQMLQDLQAAGFDEDMVNQALQKTNNRSIEAAIEFISKM: the abundance fitness was -0.104 ± 0.064.

In the case of TSEVNPQMLQDLQAAGFDEDMVGQALQKTNNRSIEAAIEFISKM, the abundance fitness was -0.322 ± 0.034. The result for TSEVNPQMLQDLQAAGFDEDMVWQALQKTNNRSIEAAIEFISKM reads -0.373 ± 0.045; that for TSEVNPQMLQDLQAAGFDEDMVDQALQKTNNRSIEAAIEFISKM, -0.283 ± 0.081. The result for TSEVNPQMLQDLQAAGFDEDMVMQALQKTNNRSIEAAIEFISKM reads -0.055 ± 0.045. The value for TSEVNPQMLQDLQAAGFDEDMVFQALQKTNNRSIEAAIEFISKM was -0.261 ± 0.16; that for TSEVNPQMLQDLQAAGFDEDMVTQALQKTNNRSIEAAIEFISKM was -0.041 ± 0.045; that for TSEVNPQMLQDLQAAGFDEDMVKQALQKTNNRSIEAAIEFISKM was 0.041 ± 0.049. Regarding TSEVNPQMLQDLQAAGFDEDMVAQALQKTNNRSIEAAIEFISKM, the abundance fitness is -0.115 ± 0.043. In the case of TSEVNPQMLQDLQAAGFDEDMVRQALQKTNNRSIEAAIEFISKM, the abundance fitness worked out at 0.024 ± 0.034. The value for TSEVNPQMLQDLQAAGFDEDMVHQALQKTNNRSIEAAIEFISKM was -0.314 ± 0.064.

In the case of TSEVNPQMLQDLQAAGFDEDMVVQALQKTNNRSIEAAIEFISKM, the abundance fitness stood at 0.039 ± 0.037. On to TSEVNPQMLQDLQAAGFDEDMVYQALQKTNNRSIEAAIEFISKM, for which the abundance fitness was -0.211 ± 0.064. The result for TSEVNPQMLQDLQAAGFDEDMVLQALQKTNNRSIEAAIEFISKM reads -0.188 ± 0.044. The value for TSEVNPQMLQDLQAAGFDEDMVPQALQKTNNRSIEAAIEFISKM was -0.591 ± 0.095; that for TSEVNPQMLQDLQAAGFDEDMVIKALQKTNNRSIEAAIEFISKM was 0.035 ± 0.06. The result for TSEVNPQMLQDLQAAGFDEDMVIPALQKTNNRSIEAAIEFISKM reads -0.323 ± 0.048; that for TSEVNPQMLQDLQAAGFDEDMVINALQKTNNRSIEAAIEFISKM, -0.146 ± 0.072; that for TSEVNPQMLQDLQAAGFDEDMVIDALQKTNNRSIEAAIEFISKM, -0.005 ± 0.05. TSEVNPQMLQDLQAAGFDEDMVITALQKTNNRSIEAAIEFISKM: the abundance fitness was 0.009 ± 0.044. Take TSEVNPQMLQDLQAAGFDEDMVIHALQKTNNRSIEAAIEFISKM: the abundance fitness was 0.055 ± 0.048. Take TSEVNPQMLQDLQAAGFDEDMVIYALQKTNNRSIEAAIEFISKM: the abundance fitness was -0.222 ± 0.13. In the case of TSEVNPQMLQDLQAAGFDEDMVIEALQKTNNRSIEAAIEFISKM, the abundance fitness turned out to be 0.083 ± 0.038.

TSEVNPQMLQDLQAAGFDEDMVILALQKTNNRSIEAAIEFISKM: the abundance fitness was determined as 0.013 ± 0.036. The value for TSEVNPQMLQDLQAAGFDEDMVIVALQKTNNRSIEAAIEFISKM was -0.033 ± 0.033; that for TSEVNPQMLQDLQAAGFDEDMVICALQKTNNRSIEAAIEFISKM was -0.043 ± 0.042; that for TSEVNPQMLQDLQAAGFDEDMVISALQKTNNRSIEAAIEFISKM was -0.196 ± 0.043. The value for TSEVNPQMLQDLQAAGFDEDMVIRALQKTNNRSIEAAIEFISKM was -0.103 ± 0.033; that for TSEVNPQMLQDLQAAGFDEDMVIMALQKTNNRSIEAAIEFISKM was -0.028 ± 0.037. In the case of TSEVNPQMLQDLQAAGFDEDMVIFALQKTNNRSIEAAIEFISKM, the abundance fitness came out at 0.019 ± 0.13. The value for TSEVNPQMLQDLQAAGFDEDMVIIALQKTNNRSIEAAIEFISKM was -0.015 ± 0.083; that for TSEVNPQMLQDLQAAGFDEDMVIAALQKTNNRSIEAAIEFISKM was -0.066 ± 0.034; that for TSEVNPQMLQDLQAAGFDEDMVIQALQETNNRSIEAAIEFISKM was 0.034 ± 0.039. For the variant TSEVNPQMLQDLQAAGFDEDMVIQALQTTNNRSIEAAIEFISKM, the abundance fitness was -0.259 ± 0.067. The value for TSEVNPQMLQDLQAAGFDEDMVIQALQLTNNRSIEAAIEFISKM was -0.366 ± 0.038. With TSEVNPQMLQDLQAAGFDEDMVIQALQITNNRSIEAAIEFISKM, the abundance fitness was -0.445 ± 0.13. As for TSEVNPQMLQDLQAAGFDEDMVIQALQGTNNRSIEAAIEFISKM, the abundance fitness was -0.08 ± 0.031. The result for TSEVNPQMLQDLQAAGFDEDMVIQALQSTNNRSIEAAIEFISKM reads -0.041 ± 0.035; that for TSEVNPQMLQDLQAAGFDEDMVIQALQPTNNRSIEAAIEFISKM, -0.74 ± 0.072.

For TSEVNPQMLQDLQAAGFDEDMVIQALQQTNNRSIEAAIEFISKM, the abundance fitness was -0.024 ± 0.057. Regarding TSEVNPQMLQDLQAAGFDEDMVIQALQATNNRSIEAAIEFISKM, the abundance fitness stood at 0.12 ± 0.038.

Turning to TSEVNPQMLQDLQAAGFDEDMVIQALQWTNNRSIEAAIEFISKM, the abundance fitness was -0.444 ± 0.035.

On to TSEVNPQMLQDLQAAGFDEDMVIQALQYTNNRSIEAAIEFISKM, for which the abundance fitness is -0.027 ± 0.075.

On to TSEVNPQMLQDLQAAGFDEDMVIQALQMTNNRSIEAAIEFISKM, for which the abundance fitness is -0.037 ± 0.046. The value for TSEVNPQMLQDLQAAGFDEDMVIQALQVTNNRSIEAAIEFISKM was -0.163 ± 0.036; that for TSEVNPQMLQDLQAAGFDEDMVIQALQDTNNRSIEAAIEFISKM was -0.257 ± 0.063. As for TSEVNPQMLQDLQAAGFDEDMVIQALQFTNNRSIEAAIEFISKM, the abundance fitness is -0.148 ± 0.05. In the case of TSEVNPQMLQDLQAAGFDEDMVIQALQHTNNRSIEAAIEFISKM, the abundance fitness amounted to 0.073 ± 0.054. The result for TSEVNPQMLQDLQAAGFDEDMVIQALQRTNNRSIEAAIEFISKM reads -0.048 ± 0.035.

For the variant TSEVNPQMLQDLQAAGFDEDMVIQALQCTNNRSIEAAIEFISKM, the abundance fitness was -0.129 ± 0.05.
